Assay results from patent US20200384109A1 (Novartis, published 2020).

B1: NOV581 (antibody, V domains shown)
VH: QVQLVESGGGLVQPGGSLRLSCVASGFTFSGYNMHWVRQAPGKGLEWVSYISNSGRTIYYADSVKGRFTLSRDNAKNSLYLQMNSLRAEDTAVYFCARDRDPQWLGNDALQIWGQGTMVTVSS
VL: EIVLTQSPGTLSLSPGERATLSCRASQSVSSGYLAWYQQKPGQAPRLLIYGASSRATGIPDRFSGSGSGTDFTLTISRLEPEDFAVYYCQQYGTSRKTFGQGTKVEIKR
notes: also called antibody NOV581; clone NOV581
B2: NOV638 (antibody, V domains shown)
VH: QVQLVQSGAEVKKPGASVKVSCKASGYTFTSYDIIWVRQATGQGLEWMGRMNPTGGNTDYVPKFQGRVTMTRDISLSTAYMELRSLTSEDTAVFYCARGVKSLGVSEIDYWGQGTLVTVSS
VL: QSALTQPPSVSAAPGQKVTISCSGSTSNIANNYVLWYQQLPGTAPKLLIYDNNKRPSGIPDRFSGSKSGTSATLGITGLQTADEADYYCGTWDNSLSVGVFGGGTKLTVLG
notes: also called antibody NOV638
B3: NOV530 (antibody, V domains shown)
VH: QVQLQESGPGLVKPSQTLSLTCTVSGGSISGGGYYWSWIRQHPGKGLEFIGYIYYNRGTYYNPALKSRLTISVDTSKNDFSLKLSSVSAADTAVYYCARCVLGGYGSDAFDRWGQGTTVTVAS
VL: EIVLTQSPVTLSLSPGERAILSCRASQSVSSHLAWYQQKPGQAPRLLIYDASSRANGIPARFSGSGSGTDFTLTISSLAPEDFAVYYCQQRSSWPPSLTFGGGTKVEIRR
notes: also called antibody NOV530; cross-neutralizing IgG NOV530

What was measured:
[1] = target: T1, BKV serotype I (ST1) virus-like particles (VLPs) (BK virus serotype I, UniProt P03088 1-362); experiment: solution equilibration titration (SET), antibody 1 pM, BKV VLPs in solution, MSD read-out
T1 construct: VLP made by expressing VP1 in Sf9 insect cells and composed of 72 VP1 pentamers; also called BKV ST1 VLP; BKV ST1
T1 chain: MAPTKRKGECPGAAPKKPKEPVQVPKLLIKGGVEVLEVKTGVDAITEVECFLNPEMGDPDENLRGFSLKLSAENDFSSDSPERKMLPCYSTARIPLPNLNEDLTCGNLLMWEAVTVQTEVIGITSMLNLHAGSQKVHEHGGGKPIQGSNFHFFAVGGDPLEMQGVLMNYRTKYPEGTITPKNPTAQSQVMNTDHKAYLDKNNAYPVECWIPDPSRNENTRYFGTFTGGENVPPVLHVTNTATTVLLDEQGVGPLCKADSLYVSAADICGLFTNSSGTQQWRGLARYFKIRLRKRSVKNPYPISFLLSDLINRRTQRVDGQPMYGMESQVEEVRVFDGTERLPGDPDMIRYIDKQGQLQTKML

[2] = target: T2, BKV serotype IV (ST4) virus-like particles (VLPs) (BK virus serotype IV, UniProt P14996 1-362); experiment: solution equilibration titration (SET) with BKV VLPs
T2 construct: VLP made by expressing VP1 in Sf9 insect cells and composed of 72 VP1 pentamers; also called BKV ST4 VLP; BKV ST4

[3] = target: T2, BKV serotype IV (ST4) virus-like …; experiment: ELISA on plates coated with BKV ST1 or ST4 VLPs (100 ng/well)
Experimental: The binding of antibodies to VLPs were analyzed by ELISA. Briefly, Nunc MaxiSorp 384-well plates (Thermo Scientific) were coated with 100 ng/well BKV VLPs to BK serotype I (ST1) or serotype IV (ST4) overnight. Antibodies were serially diluted in PBS with 0.5% BSA and allowed to bind antigen-coated plates for 2 hours. […] Plates were washed with PBS and tetramethylbenzidine (TMB) microwell peroxidase substrate (SeramunBlau Fast, Seramun, Germany) was used to develop the reactions.

[4] = target: JC virus (JCV) (JC virus, UniProt P03089 1-354); experiment: cell-based or functional assay

Binder | Kd [1] [nM] | binding result [2] | binding result [3] | EC50 of virus neutralization [4] [nM]
B1 | < 0.05 | no binding | – | –
B2 | – | – | no binding | –
B3 | < 0.05 | – | – | < 1
